B1: recombinant N-term portion of OPN (aa 17-167) (domain or fragment)
chain: not shown
notes: Osteopontin, N-terminal thrombin-generated fragment, aa 17-167; also called OPN-N; OPN-N terminal; source: recombinant
B2: soluble recombinant ICOSL-Fc (Fc fusion, UniProt O75144 19-256, looked up)
chain: DTQEKEVRAMVGSDVELSCACPEGSRFDLNDVYVYWQTSESKTVVTYHIPQNSSLENVDSRYRNRALMSPAGMLRGDFSLRLFNVTPQDEQKFHCLVLSQSLGFQEVLSVEVTLHVAANFSVPVVSAPHSPSQDELTFTCTSINGYPRPNVYWINKTDNSLLDQALQNDTVFLNMRGLYDVVSVLRIARTPSVNIGCCIENVLLQQNLTVGSQTGNDIGERDKITENPVSTGEKNAAT
notes: also called B7-H2; CD275; source: bought: Bio-Techne / R&D
B3: recombinant C-term portion of OPN (aa 168-314) (domain or fragment)
chain: not shown
notes: Osteopontin, C-terminal thrombin-generated fragment, aa 168-314; also called OPN-C; OPN-C terminal; source: recombinant

Tests used:
Test in all cases: ELISA; OPN preparation (60 nM in PBS) coated on MaxiSorp plates; ICOSL-Fc titrated from 60 nM to 1.8 nM in PBS + 0.05% Tween-20, 1 h at 25 C, with or without 60 nM ICOS-Fc, or ICOS-Fc alone; detected with HRP anti-human-IgG1
Settings in all cases: both partners purified
[1] = target: B2
[2] = target: T1, GST-OPN fusion protein (human OPNa) produced in E. coli (human, UniProt P10451-1 17-314)
T1 construct: human Osteopontin OPNa; also called OPN-GST; huGST-OPN; source: E. coli BL21 (DE3), purified (Glutathione Sepharose)

[3] = target: T2, full-length OPN (OPN-a) produced in an eukaryotic system ( (human or mouse cDNA cloned), UniProt P10451-1 17-314)
T2 construct: Osteopontin, full-length form OPN-a; Secreted into the supernatant, so the signal peptide is probably absent (surmise); also called OPN-FL; home-made OPN-FL; source: CHO cells, stably transfected (pUCOE vector), purified from supernatant on nickel-nitrilotriacetic agarose
T2 sequence (P10451 17-314): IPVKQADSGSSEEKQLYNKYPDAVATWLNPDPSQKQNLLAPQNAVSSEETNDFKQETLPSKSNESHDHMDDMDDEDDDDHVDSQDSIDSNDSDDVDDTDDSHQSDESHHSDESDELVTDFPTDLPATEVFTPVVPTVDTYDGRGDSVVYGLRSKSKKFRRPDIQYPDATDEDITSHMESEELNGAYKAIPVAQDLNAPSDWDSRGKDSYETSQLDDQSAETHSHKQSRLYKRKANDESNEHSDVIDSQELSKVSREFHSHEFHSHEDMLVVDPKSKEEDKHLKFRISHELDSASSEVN

T1 sequence (P10451 17-314): as above

binding result [1]	binding result [2]	binding result [3]	Binder
binds			B1
	binds	binds	B2
binds			B3

From paper PMC7588454, “Osteopontin binds ICOSL promoting tumor metastasis” (Communications Biology, 2020)
